The source of these data is article PMC4125281, “Capsid Protein VP4 of Human Rhinovirus Induces Membrane Permeability by the Formation of a Size-Selective Multimeric Pore” (PLoS Pathogens, 2014).

*: point of attachment. Myristoyl = CCCCCCCCCCCCCC(=O)*

Data set [1] deals with the molecule itself. The data set is described as follows: cross-linking; VP4His incubated with liposomes (50 uM lipid) at 25 C for 1 hr, DSP 0.5 mM or 1 mM for 20 min at 25 C; non-reducing SDS-PAGE, western blot with antisera to VP4; cross-linking reversed with 50 mM DTT in some samples. On the technique in general: A western blot detects proteins with antibodies after separation by electrophoresis.

Data set [2] concerns the molecule itself. Description: SDS-PAGE without cross-linking (multimers that survive SDS); VP4His incubated with liposomes, no DSP (Fig. 5B lane 5); non-reducing SDS-PAGE, western blot with antisera to VP4.

B1: recombinant myristoylated human rhinovirus 16 VP4 with six histidines at the C-terminus (VP4His) (natural protein)
chain: Myristoyl-MGAQVSRQNVGTHSTQNMVSNGSSLNYFNINYFKDAASSGASRLDFSQDPSKFTDPVKDVLEKGIPTLQ-{H2N-H2N-H2N-H2N-H2N-H2N}
notes: capsid protein VP4 of human rhinovirus 16 (HRV16), the cut product VP4 of the genome polyprotein; native VP4 about 7.4 kDa, VP4His about 8.2 kDa; Plasmid pETVP4His (pET23d); also called recombinant VP4; not shown: His6, C-terminal, kept
Regarding B1, the “stoichiometry N” value in data set [1] was 6; in data set [2], 2.

What is called stoichiometry N is the number of molecules, sites or subunits per partner or assembly.
